Reference: PMC5042876
Substitutions are numbered along the chain they refer to. In names and notes the source's numbering stands.

Substrate: CC1(C)C[C@H]2C=C(C(=O)O)[C@@H]3COC(=O)[C@]4(CO4)[C@]23C1
Assay: purified protein, by the assay type
Conditions: 30 °C

B1: wild-type PntM (Streptomyces arenae) (protein)
chain: MTDLPRLPFDNPDIMGIAPQMLALQKEGPIARVGTAGEDAWLVTRYDEVRTLLADRRLRLSNPNPQPSAKSAARAFMVALMAGDDHETEPARHAQMRSLLIPRFSTRRLRLMKTRIEHHVDELLDQLAASAPPVDLHRVLSFRLPTMVVCDLLGVPLADRERFGQWARGTFDQSDNEHSANTFQQVVDYMLELVARKRVEPGDDILSELIAEKDGALSDADIAHLGNAVLLFGYETTIVRIDLGTLLLLRNPVQRAQLAEDPGLAPAAVEEILRLGVGGKGSNALIPRYAHGDITVGETVIRTGDAVMLAIGAANYDDRAFPDGGLFDLTRVRPRSHLAFGHGARHCIGRTLARIELTAVFERLFRRLPDLRLAVPEESLRWQEHRITGGFDEIPVTF
- Km (other: Wild-type, pH 8.0): 36 ± 14 µM
- kcat (other: Wild-type, pH 8.0): 0.03 s⁻¹
- kcat/Km (other: Wild-type, pH 8.0): 833 M⁻¹ s⁻¹

B2: PntM M77S (Streptomyces arenae; M77S) (protein)
chain: B1 chain with M77S
- Km (other: M77S, pH 8.0): 19 ± 4 µM
- kcat (other: M77S, pH 8.0): 0.000317 s⁻¹
- kcat/Km (other: M77S, pH 8.0): 16.7 M⁻¹ s⁻¹

B3: PntM F232L (Streptomyces arenae; F232L) (protein)
chain: B1 chain with F232L
- Km (other: F232L, pH 8.0): 12.0 ± 3 µM
- kcat (other: F232L, pH 8.0): 0.0015 s⁻¹
- kcat/Km (other: F232L, pH 8.0): 125 M⁻¹ s⁻¹

B4: PntM M81C (Streptomyces arenae; M81C) (protein)
chain: B1 chain with M81C
- Km (other: M81C, pH 8.0): 19 ± 3 µM
- kcat (other: M81C, pH 8.0): 0.00153 s⁻¹
- kcat/Km (other: M81C, pH 8.0): 81.7 M⁻¹ s⁻¹

B5: PntM M81A (Streptomyces arenae; M81A) (protein)
chain: B1 chain with M81A
- Km (other: M81A, pH 8.0): 37 ± 6 µM

B6: PntM M81C-BME (Streptomyces arenae; M81C) (protein)
chain: B1 chain with M81C
- Km (other: M81C-BME, pH 8.0): 280 ± 110 µM
- kcat (other: M81C-BME, pH 8.0): 0.00142 s⁻¹
- kcat/Km (other: M81C-BME, pH 8.0): 5 M⁻¹ s⁻¹

B7: PntM F232A (Streptomyces arenae; F232A) (protein)
chain: B1 chain with F232A
- Km (other: F232A, pH 8.0, n=1): 43 ± 5 µM
- kcat (other: F232A, pH 8.0, n=1): 0.000583 s⁻¹
- kcat/Km (other: F232A, pH 8.0, n=1): 13.7 M⁻¹ s⁻¹
